Results reported in PMC8904820.

Molecular target: HRT1-REF bridging protein (HRBP) (Hevea brasiliensis)

prenyltransferase activity of HRT1/HRBP-nanodisc complexes, raw [14C]IPP incorporation (12.5 nCi [14C]IPP in the reaction): 12200 dpm
Substance: Hevea rubber transferase 1 (HRT1) (enzyme)
